Laboratory results: patent publication US20210238276A1 (INTEGRAL MOLECULAR, published 2021)
Positions count from the first letter of the chain named.

T1: hsGLUT4 Q298A (human, UniProt P14672 1-509)
T1 sequence: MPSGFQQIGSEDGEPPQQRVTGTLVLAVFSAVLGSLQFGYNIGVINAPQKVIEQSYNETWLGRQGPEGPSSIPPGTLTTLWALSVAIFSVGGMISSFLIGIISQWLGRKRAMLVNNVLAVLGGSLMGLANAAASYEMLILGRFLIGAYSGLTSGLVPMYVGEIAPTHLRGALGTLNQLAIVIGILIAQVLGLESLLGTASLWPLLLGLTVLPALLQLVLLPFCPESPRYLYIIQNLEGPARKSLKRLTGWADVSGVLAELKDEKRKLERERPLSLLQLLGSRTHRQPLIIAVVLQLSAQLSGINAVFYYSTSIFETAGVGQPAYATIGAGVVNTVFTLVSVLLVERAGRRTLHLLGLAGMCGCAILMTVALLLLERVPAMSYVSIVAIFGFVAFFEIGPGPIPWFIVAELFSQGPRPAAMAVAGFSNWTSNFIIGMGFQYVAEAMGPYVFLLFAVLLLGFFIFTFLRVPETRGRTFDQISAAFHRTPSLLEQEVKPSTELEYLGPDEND

T2: hsGLUT4 N304A (human, UniProt P14672 1-509)
T2 sequence: T1 sequence with A298Q, N304A

T3: hsGLUT4 F307A (human, UniProt P14672 1-509)
T3 sequence: T1 sequence with A298Q, F307A

T4: hsGLUT4 R416A (human, UniProt P14672 1-509)
T4 sequence: T1 sequence with A298Q, R416A

B1: AB111 (Fc fusion)
scFv: ALTQPSSVSANPGETVKITCSGSGSWYGWFQQKSPGSAPVTVIYSNDKRPSDIPSRFSGSKSGSTSTLTITGVQVEDEAVYYCGNWDIFGAGTTLTVLGQSSRSSGGGGSSGGGGSAVTLDESGGGLQTPGGALSLVCKASGFTFSSHGMGWVRQAPGKGLEWVASISTGRYTFYAPAVKGRATISRDNGQSTVRLQLNNLRAEDTATYYCTKCAGLNGCGGGEIDAWGHGTEVIVSS
notes: Bivalent scFv-Fc; also called MAb AB111; not shown: Fc fragment of human IgG1, cloned in frame with the scFv
B2: AB108 (Fc fusion)
scFv: ALTQPSSVSANLGGTVKITCSGSSGSYGWYQQKAPGSAPVTLIYRNDKRPSDIPSRFSGSESGSTGTLTITGVQAEDEAVYFCGGYDSSAGYAAFGAGTTLTVLGQSSRSSGGGGSSGGGGSAVTLDESGGGLQTPGGALSLVCKASGFTFSSHGMGWVRQAPGKGLEWVGSISTGRYTFYAPAVKGRATISRDNGQSTLRLQLNNLRAEDTGTYYCTKCAGLNGCGGGEIDAWGHGTEVIVSS
notes: Bivalent scFv-Fc; also called MAb AB108; not shown: Fc fragment of human IgG1, cloned in frame with the scFv
B3: AB101 (scFv)
scFv: ALTQPSSVSANPGETVKITCSGSSNSYGWYQQKSPGSAPVTVIYYNDKRPSDIPSRFSGSKSDSTHTLTITGVRAEDEAVYFCGSYDSTYVGIFGAGTTLTVLGQSSRSSGGGGSSGGGGSAVTLDESGGGLQTPGGTLSLVCKASGFTFSSNAMGWVRQAPGKGLEWVAGISSDGRYTKYGSAVKGRATISRDNGQSTVRLQLNNLRAEDTGTYFCAKAFGNNYRRIYAGQIDAWGHGTEVIVSS
notes: Chicken-derived clone used as a control; the four lead clones were tested as scFv-human IgG1 Fc; also called MAb AB101
B4: AB105 (Fc fusion)
scFv: ALTQPSSVSANPGETVEITCSGDSSYYGWYQQKSPGSAPVTVIYANTNRPSDIPSRFSGSASGSTATLTITGVQAEDEAVYYCGSADSTYAGIFGAGTTLTVLGQSSRSSGGGGSSGGGGSAVTLDESGGGLQTPGGALSLICKASGFTFSSYTMNWVRQAPGKGLEWVGVISNSGRTTNYGAAVQGRATISRDNGQSTVRLQLNNLRAEDTGTYYCAKSSASASCAWWAGRSYPCSANRIDAWGHGTEVIVSS
notes: Bivalent scFv-Fc; also called MAb AB105; not shown: Fc fragment of human IgG1, cloned in frame with the scFv

What was measured:
Experiment in all cases: flow cytometry, alanine-scan library in HEK-293T
hsGLUT4 Q298A = target: T1, hsGLUT4 Q298A
How it was run: (§1)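 HEK-293T cells expressing individual GLUT4 alanine mutants were stained 48 h post-transfection with anti-GLUT4 scFv MAbs (2 μg/ml), then biotinylated secondary and streptavidin-PerCP, and read by high-throughput flow cytometry. Where used, cytochalasin B (10 uM final) was given for 30 min before and during primary antibody staining.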

hsGLUT4 N304A = target: T2, hsGLUT4 N304A
How it was run: as §1

hsGLUT4 F307A = target: T3, hsGLUT4 F307A
How it was run: as §1

hsGLUT4 R416A = target: T4, hsGLUT4 R416A
How it was run: as §1

Row | Molecule | % of binding to wild type GLUT4 (hsGLUT4 Q298A) | % of binding to wild type GLUT4 (hsGLUT4 N304A) | % of binding to wild type GLUT4 (hsGLUT4 F307A) | % of binding to wild type GLUT4 (hsGLUT4 R416A)
1 | 1F8 (antibody) | 87% | 79% | 84% | 73%
2 | B1 | 145% | 125% | 108% | 157%
3 | B2 | 78% | 72% | 74% | 67%
4 | B3 | 107% | 145% | 82% | 69%
5 | B4 | – | 11% | – | –
